For this assay, the target named is ALG-2 (human (endogenous in HeLa)) (UniProt O75340).
Sequence of UniProt O75340 (O75340 whole entry): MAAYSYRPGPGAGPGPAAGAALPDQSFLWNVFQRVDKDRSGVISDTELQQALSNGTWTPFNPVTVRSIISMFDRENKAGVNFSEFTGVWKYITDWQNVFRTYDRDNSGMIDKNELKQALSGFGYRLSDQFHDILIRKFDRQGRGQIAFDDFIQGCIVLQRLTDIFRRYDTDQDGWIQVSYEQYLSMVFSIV

Consider QGPPYPTYPGYPGYCQ [ALIX peptide], for which the viability of EGFP-expressing HeLa cells 1 hour after 50 uM digitonin in the presence of 10 uM peptide (about 60% without the peptide) was determined as 37 % viability.

Values taken from paper PMC6150531.
